Legend:
snFPITE-n1 (snFPITE) = molecular target: T1, snFPITE-n1 (snFPITE) (Phascolopsis gouldii, UniProt Z9UHO8WHJ2); experiment: inhibition of fibrin lysis or plasminogen activation, SDS-PAGE; assay type: biochemical; settings: 2.5 mM, 30 min pre-incubation; purified native snFPITE (called snFPITE-n1); enzyme also purified on Arg-Sepharose 4B
T1 construct: native, purified from S. nudus intestine / intestinal fluid by chromatography
T1 sequence (Z9UHO8WHJ2 1-239): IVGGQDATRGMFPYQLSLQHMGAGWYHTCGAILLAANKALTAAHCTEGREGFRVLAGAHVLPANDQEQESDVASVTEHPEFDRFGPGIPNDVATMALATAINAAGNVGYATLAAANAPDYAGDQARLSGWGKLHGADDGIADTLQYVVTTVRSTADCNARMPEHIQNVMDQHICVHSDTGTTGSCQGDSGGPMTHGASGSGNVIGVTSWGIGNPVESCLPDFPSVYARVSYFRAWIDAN

[1] = molecular target: fibrinogen, biotin-labeled (UniProt P02671); experiment: BLI; GatorPrime (GatorPivot in the results), streptavidin (SA-XT) biosensors; biotin-labeled plasminogen or fibrinogen immobilised, snFPITE in solution; 30 °C, 1000 rpm; association 2–3 min, dissociation 2–5 min
Sequence of fibrinogen, biotin-labeled (P02671 36-866, chain 1 of 3): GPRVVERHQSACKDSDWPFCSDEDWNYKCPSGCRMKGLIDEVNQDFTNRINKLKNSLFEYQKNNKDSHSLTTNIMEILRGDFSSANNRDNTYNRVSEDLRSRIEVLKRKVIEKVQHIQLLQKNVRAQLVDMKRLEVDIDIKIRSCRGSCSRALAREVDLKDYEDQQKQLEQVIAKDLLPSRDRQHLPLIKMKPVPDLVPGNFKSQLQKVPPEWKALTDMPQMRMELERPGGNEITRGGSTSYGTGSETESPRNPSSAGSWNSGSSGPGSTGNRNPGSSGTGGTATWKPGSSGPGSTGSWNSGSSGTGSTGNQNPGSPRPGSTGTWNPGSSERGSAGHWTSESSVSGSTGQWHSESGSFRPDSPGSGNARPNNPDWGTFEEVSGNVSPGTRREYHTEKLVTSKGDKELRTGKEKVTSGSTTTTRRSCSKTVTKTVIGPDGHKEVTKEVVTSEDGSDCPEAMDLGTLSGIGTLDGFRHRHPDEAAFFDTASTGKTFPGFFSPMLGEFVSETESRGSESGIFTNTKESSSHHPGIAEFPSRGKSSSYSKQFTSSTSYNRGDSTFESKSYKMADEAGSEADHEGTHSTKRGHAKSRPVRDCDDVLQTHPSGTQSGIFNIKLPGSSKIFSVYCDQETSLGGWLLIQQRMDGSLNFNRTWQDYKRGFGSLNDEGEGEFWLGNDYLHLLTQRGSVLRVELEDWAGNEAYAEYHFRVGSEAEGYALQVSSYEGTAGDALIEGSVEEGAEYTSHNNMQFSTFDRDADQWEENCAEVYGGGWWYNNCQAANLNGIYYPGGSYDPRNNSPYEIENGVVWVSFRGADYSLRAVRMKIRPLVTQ
Sequence of fibrinogen, biotin-labeled (P02675 45-491, chain 2 of 3, further chain): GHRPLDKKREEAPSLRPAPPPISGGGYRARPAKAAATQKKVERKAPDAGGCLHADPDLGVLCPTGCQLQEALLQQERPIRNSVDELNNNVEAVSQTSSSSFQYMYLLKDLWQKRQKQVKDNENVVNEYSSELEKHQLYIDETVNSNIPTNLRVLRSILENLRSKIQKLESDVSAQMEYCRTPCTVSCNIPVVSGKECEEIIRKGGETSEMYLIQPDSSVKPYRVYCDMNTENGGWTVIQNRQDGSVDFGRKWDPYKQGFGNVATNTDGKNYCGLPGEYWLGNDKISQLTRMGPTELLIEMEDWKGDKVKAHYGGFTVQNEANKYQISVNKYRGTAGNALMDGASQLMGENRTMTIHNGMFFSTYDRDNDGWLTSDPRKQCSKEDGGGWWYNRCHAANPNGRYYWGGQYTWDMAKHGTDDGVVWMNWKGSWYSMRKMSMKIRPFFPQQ
Sequence of fibrinogen, biotin-labeled (P02679 27-453, chain 3 of 3, further chain): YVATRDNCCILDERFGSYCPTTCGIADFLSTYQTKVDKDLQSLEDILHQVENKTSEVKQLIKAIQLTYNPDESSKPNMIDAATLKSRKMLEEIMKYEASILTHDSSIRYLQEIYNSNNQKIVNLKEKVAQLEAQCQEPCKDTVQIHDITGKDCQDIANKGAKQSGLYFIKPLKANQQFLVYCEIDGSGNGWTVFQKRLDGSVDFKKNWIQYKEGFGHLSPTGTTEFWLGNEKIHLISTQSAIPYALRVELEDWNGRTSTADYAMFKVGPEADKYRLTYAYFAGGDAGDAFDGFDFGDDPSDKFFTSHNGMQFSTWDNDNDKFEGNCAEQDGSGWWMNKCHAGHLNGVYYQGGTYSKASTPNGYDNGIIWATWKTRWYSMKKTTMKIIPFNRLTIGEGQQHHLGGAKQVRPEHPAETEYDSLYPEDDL

[2] = molecular target: plasminogen, biotin-labeled (human); experiment: as above

N=C(N)NCCC[C@H](N)C(=O)O [arginine]
inhibition of fibrin lysis or plasminogen activation, SDS-PAGE (snFPITE-n1 (snFPITE)): Lys or Arg inhibited snFPITE-n1

small facultative plasminogen-independent thrombolytic enzyme (snFPITE) from Sipunculus nudus
Kd [1]: 0.000133 µM
Kd [2]: 0.0547 µM
